This is an account of results in paper PMC9843055, “Karyopherin α deficiency contributes to human preimplantation embryo arrest” (The Journal of Clinical Investigation, 2023).

The target of the assay is T1, human KPNA7 (karyopherin subunit α7), WT, purified, GST cleaved (human, UniProt A9QM74 1-516).
T1 construct: karyopherin subunit α7 (importin α8), human; also called hKPNA7; importin α8; source: E. coli BL21 (DE3) plysS, purified (glutathione Sepharose, GST tag cut with PreScission protease)
T1 sequence (A9QM74 whole entry): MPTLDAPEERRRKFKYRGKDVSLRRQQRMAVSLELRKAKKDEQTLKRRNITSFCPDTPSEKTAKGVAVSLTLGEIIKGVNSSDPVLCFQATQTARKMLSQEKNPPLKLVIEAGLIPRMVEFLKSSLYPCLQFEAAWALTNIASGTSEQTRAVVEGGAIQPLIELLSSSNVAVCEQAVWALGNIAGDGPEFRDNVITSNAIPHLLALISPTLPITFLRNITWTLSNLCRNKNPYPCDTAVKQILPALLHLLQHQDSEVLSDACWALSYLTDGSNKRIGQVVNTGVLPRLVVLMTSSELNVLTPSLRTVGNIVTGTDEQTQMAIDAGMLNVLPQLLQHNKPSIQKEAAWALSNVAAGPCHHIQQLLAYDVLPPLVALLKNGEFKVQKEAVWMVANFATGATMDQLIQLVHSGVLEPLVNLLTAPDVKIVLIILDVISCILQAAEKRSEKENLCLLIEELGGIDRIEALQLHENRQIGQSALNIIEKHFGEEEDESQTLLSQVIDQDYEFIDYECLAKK
Description: pull-down; GST-SV40TNLS-GFP or GST-RSL1D1-GFP held on GST beads (4°C, 1 h, transport buffer with 0.1% Triton X-100), then cleaved WT or mutant KPNA7 at 4°C for 2 h; Western blotting. To be noted: both partners purified.

B1: GST-SV40TNLS-GFP (other)
chain: PKKKRKV
notes: nuclear localization signal of the SV40 large T antigen (SV40TNLS), between GST and GFP; source: E. coli BL21 (DE3) plysS, purified (glutathione Sepharose); not shown: GST, N-terminal, kept; GFP, C-terminal, kept
As for B1, the binding result is listed as “binds”.
